Measurements published in patent US20230312724A1 (KADMON, published 2023).
Each block holds one binder with its values, some of them ahead of it.

How the values were obtained:
[1] = molecular target: T1, mouse B7-H4-Fc (mouse; human); experiment: ELISA, coated mB7-H4-Fc (title on the sheet: Binding to mB7H4-Fc)
T1 construct: also called mB7-H4-Fc; mB7-H4-hFc
Protocol: ELISA experiments were performed to determine binding to hB7-H4-Fc (FIG. 4A), hB7-H4-his (FIG. 4B), hB7-H4 IgV domain (FIG. 4C), and mB7-H4 IgV domain (FIG. 4D). Flow cytrometry experiments were performed to determine binding to CHO cells expressing hB7-H4 (FIG. 4E) or mB7-H4 (FIG. 4F). […] A cross-reactive IgV binding antibody was used as a control.
(§1) About 1-2 μg/ml of human or mouse B7-H4-Fc (or his-tagged) was immobilized on ELISA plates (Immuno 2HB, Thermo scientific, cat #3455) at 4° C. overnight. After blocking the plates with 3% PBS+milk, serial diluted antibodies were added to the blocked plates and incubated at RT for 1-1.5 h. After washing the plates with PBS-T (0.05%), horse radish peroxidase (HRP)-conjugated antibody targeting the hFab was added to the plate. Signals were developed by adding 3,3′,5,5′-Tetramethylbenzidine (TMB (followed 1N of H₂SO₄ to stop the reaction. The OD at 450 nm was read by ELISA plate reader (Infinite M1000 from TECAN). GraphPad from Prism was used to plot OD450 vs. antibody concentration curve and to calculate the EC50 values.

[2] = molecular target: T1, mouse B7-H4-Fc; experiment: ELISA, coated mB7-H4-Fc
Summary of the method: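 OD450 was plotted against antibody concentration to derive EC50. Plates carried ~1-2 μg/ml human or mouse B7-H4-Fc (or his-tagged) coated overnight at 4° C; antibodies in serial dilution incubated 1-1.5 h at RT, with HRP-anti-hFab/TMB detection.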

[3] = molecular target: T2, human B7-H4-his (human, UniProt Q7Z7D3 25-259); experiment: ELISA on coated hB7-H4-his
T2 construct: also called hB7-H4-his; hB7-H4 his; not shown: his tag
T2 sequence: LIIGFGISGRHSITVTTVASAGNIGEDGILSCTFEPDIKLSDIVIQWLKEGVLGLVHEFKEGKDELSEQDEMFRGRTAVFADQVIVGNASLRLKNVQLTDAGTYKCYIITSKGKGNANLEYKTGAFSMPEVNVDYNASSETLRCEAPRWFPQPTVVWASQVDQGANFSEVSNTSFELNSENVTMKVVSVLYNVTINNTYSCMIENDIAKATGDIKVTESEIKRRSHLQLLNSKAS
Protocol: as §1

[4] = molecular target: T3, mB7-H4 (soluble mouse B7-H4, construct not named) (mouse, UniProt Q7TSP5 25-257, limits assumed); experiment: SPR (Biacore)
T3 sequence: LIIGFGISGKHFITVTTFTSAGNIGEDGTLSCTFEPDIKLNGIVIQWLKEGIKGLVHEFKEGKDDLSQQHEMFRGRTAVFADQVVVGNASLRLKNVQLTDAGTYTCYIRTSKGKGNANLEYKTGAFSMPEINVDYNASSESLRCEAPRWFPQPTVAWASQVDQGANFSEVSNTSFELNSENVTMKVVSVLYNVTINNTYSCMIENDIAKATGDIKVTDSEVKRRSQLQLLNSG
Summary of the method: (§2)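 Ligands (human B7-H4-Fc, human B7-H4-his, mouse B7-H4-Fc) were amine-coupled to CM5 chips at 50-100 RU. Analyte was injected at 100 nM to 0.1 nM in HBS-EP, pH 7.4, at 25 °C, with 180 s association and 1000 or 1200 s dissociation. Kinetics were fitted to a 1:1 Langmuir model.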

[5] = molecular target: T4, hB7-H4 (soluble human B7-H4, construct not named) (human, UniProt Q7Z7D3 25-259, limits assumed); experiment: SPR (Biacore)
T4 construct: also called soluble hB7-H4
T4 sequence: T2 sequence
Summary of the method: as §2

T1 sequence (chain, as listed by the source): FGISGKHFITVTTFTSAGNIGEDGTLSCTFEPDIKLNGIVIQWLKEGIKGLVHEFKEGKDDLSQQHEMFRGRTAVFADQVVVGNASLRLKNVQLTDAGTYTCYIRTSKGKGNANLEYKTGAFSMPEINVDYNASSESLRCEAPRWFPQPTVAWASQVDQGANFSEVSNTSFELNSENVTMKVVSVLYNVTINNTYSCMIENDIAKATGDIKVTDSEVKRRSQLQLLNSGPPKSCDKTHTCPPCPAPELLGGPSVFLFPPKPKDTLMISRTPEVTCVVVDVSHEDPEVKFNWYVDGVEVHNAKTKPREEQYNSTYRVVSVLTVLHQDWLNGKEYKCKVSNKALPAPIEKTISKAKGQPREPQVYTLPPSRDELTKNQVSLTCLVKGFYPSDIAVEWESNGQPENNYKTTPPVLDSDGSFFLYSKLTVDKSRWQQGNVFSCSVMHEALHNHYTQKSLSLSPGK

- EC50 (read off the curve) [1]: ~0.02 mg/L
- EC50 (read off the curve) [2]: ~0.1 nM
- EC50 (read off the curve) [3]: ~0.2 nM
B1: Control antibody 1 (antibody 20502 described in US20190085080A1) (antibody, V domains shown)
VH: QLQLQESGPGLVKPSETLSLTCTVSGGSIKSGSYYWGWIRQPPGKGLEWIGNIYYSGSTYYNPSLRSRVTISVDTSKNQFSLKLSSVTAADTAVYYCAREGSYPNQFDPWGQGTLVTVSS
VL: EIVMTQSPATLSVSPGERATLSCRASQSVSSNLAWYQQKPGQAPRLLIYGASTRATGIPARFSGSGSGTEFTLTISSLQSEDFAVYYCQQYHSFPFTFGGGTKVEIK
notes: also called (+) control Ab1; (+) Ab1

- Kd [4]: 0.0998 nM
- Kd [5]: 0.303 nM
B2: 39A11/57G8 (antibody, human IgG1, V domains shown)
VH: EVQLLESGGGLVQPGGSLRLSCAASGFTFSSYGMHWVRQAPGKGLEWVASISSSSGYIYYADSVKGRFTISRDNSKNTLYLQMNSLRAEDTAVYYCARASSGMDVWGQGTTVTVSS
VL: DIQMTQSPSSLSASVGDRVTITCRASQSIRSYLNWYQQKPGKAPKLLIYYASSLQSGVPSRFSGSGSGTDFTLTISSLQPEDFATYYCQQYYSTPLTFGQGTKVEIK
notes: 39A11 VH with 57G8 VL
